# B1: LINE1-full (parent)
# chain: UACGUAGGUGGUUUUCCCCUGAUAGUGCUAAGGGGGCCUGGAAGUUUGGACUGGGCAGAGCUCAACACAGCGUGGCAAAGUGGCUGUGGCUAGACUGCCUCUCUGGAUUCCUCGUCACUCAGCAGGGCAUCUCUGAGAGAAAUGCC
# Variants of: B1
# Assay: self-cleavage, relative activity (ratio to wild type); higher = more cleavage; in vitro, sequencing; the parent is a self-cleaving ribozyme
row,Variant,self-cleavage
1,U100C G127A,1.9
2,U100C G127U,1.84
3,U96C A107U,0.17
4,A94G U96C,0.11
5,A94G U96A,0.11
6,G93A U130C,0.02
7,U96G,0.1
8,U96A,0.07
9,U96C,0.13
10,U96A U132A,0.08
11,U96C G139U,0.14
12,C98U C123U,0.35
13,A94C U109A,0.05
14,A94C U109C,0
15,U100C A129G,1.99
16,G93A U102C,0.06
17,A92U U109C,0.65
18,A92U U109A,0.34
19,G93U A136G,0.08
20,C99U A117G,0.4
21,A94U C113U,0.12
22,C99A,0.4
23,C99U,0.57
24,C99G,0.76

row,Variant,self-cleavage
1,U100A C145U,1.15
2,A94U A121G,0.52
3,C99U A124U,0.42
4,C99U A124G,0.32
5,U96C U134C,0.11
6,U100A U119A,0.71
7,A92U U130A,0.67
8,U100C A117U,1.63
9,U100C A117G,1.49
10,U100C A117C,1.31
11,U96C A140G,0.09
12,U100A U115A,0.72
13,A94G U132G,0.28
14,U96C C101U,0.06
15,A94G A142G,0.41
16,U96A G127U,0.05
17,U100C A141G,1.9
18,A94U A117G,0.38
19,A94U A117U,0.41
20,U100C U108A,1.42
21,U96C U109G,0.16
22,U96C U109C,0.08
23,U96C U109A,0.15
24,C99U A140G,0.71

row,Variant,self-cleavage
1,U96C C120U,0.2
2,U100A A121G,1.58
3,G93A C95G,0.04
4,U96G U119A,0.03
5,U96C U102C,0.12
6,U96C U102A,0.11
7,G93U U109C,0.02
8,U100A G139U,0.31
9,U100C A138G,1.83
10,C95A U100C,0.09
11,U96A U108A,0.13
12,A94G C133A,0.46
13,U96G U134C,0.23
14,G97A A141G,0.12
15,C99A A138G,0.88
16,U96A G114A,0.06
17,U96A G105A,0.04
18,U100A A142U,0.74
19,U100A A142C,1
20,C95A U143C,0.08
21,U96C G106U,0.06
22,G97A U108C,0.17
23,U100C U109C,1.37
24,U100C U109A,1.77

row,Variant,self-cleavage
1,C99A U143C,1.03
2,C99A U143A,0.84
3,U96C G105A,0.06
4,G93U G122A,0.06
5,A94G A117U,0.4
6,C95A U130C,0
7,C99A A107G,0.61
8,A94G C131U,0.17
9,U100A C118U,0.98
10,A94G G105A,0.18
11,A94G G105U,0.2
12,G93U A140G,0.05
13,C95U U104C,0.54
14,U96C U143A,0.13
15,U100C A124U,2.22
16,U100C A124G,1.32
17,U100A A140G,0.76
18,U100A A140U,0.57
19,A94G C113U,0.09
20,G93A A117G,0.06
21,U96G A124G,0.19
22,A94U U112G,0.42
23,A94U A129G,0.3
24,U100A U132A,0.31

row,Variant,self-cleavage
1,G97A A140U,0.02
2,C99U A129G,0.89
3,U96A U100A,0.07
4,C95U U96C,0.07
5,G97U A138U,0.11
6,U100C C146U,1.71
7,C98U U115A,0.44
8,U96A C116U,0.11
9,A92U U96C,0.11
10,A92U A129G,0.69
11,A92U A129U,0.6
12,U96A A141G,0.08
13,C95U A141G,0.07
14,U96A C123U,0.06
15,C98G U102C,0.14
16,G93A U109G,0.06
17,G93A U109A,0.03
18,A92U C110U,0.46
19,C98G G125A,0.05
20,A92G U143A,0.14
21,C99U C113U,0.41
22,U96A A124U,0.06
23,A94G U108C,0.61
24,U96G U115C,0

row,Variant,self-cleavage
1,U100C C111U,1.48
2,U96C C131U,0.09
3,U100C G126C,2.64
4,A92G U134C,0
5,G97A U134C,0.07
6,U96C G122A,0.07
7,A94C A117G,0.22
8,A94C A117C,0.07
9,G93U A107G,0.06
10,U100A U109A,0.76
11,U96C C128U,0.12
12,C98A U108C,0.4
13,U100A C111A,1.19
14,C99U A138U,0.74
15,C99U A138G,1.14
16,U96A A107U,0.08
17,U96A A107G,0.08
18,A94U U108C,0.46
19,U100C U119A,2.09
20,U100A G126A,1.03
21,G93A U108C,0.03
22,A94U A140G,0.23
23,G97A A117U,0.17
24,U100A A124U,0.88

row,Variant,self-cleavage
1,U100A A124C,1.28
2,C98A A138G,0.29
3,U96A C99U,0.03
4,U96A U134C,0.08
5,U96C U130A,0.12
6,A92U A117G,1.46
7,C99A U115C,0.84
8,U100A A136G,1.25
9,U96C G114A,0.11
10,U96A A142G,0.08
11,A94G G126A,0.21
12,C99U C145A,1.03
13,A94U A124G,0.33
14,A94U A124U,0.35
15,U100C A142C,2.2
16,U96C C99U,0.1
17,U96A A117G,0.11
18,U96G U109C,0.17
19,C99U U130C,0.69
20,A94U A136G,0.3
21,C95U U119C,0.22
22,U96C G127C,0.39
23,U96C G127U,0.19
24,U96C G127A,0.08

row,Variant,self-cleavage
1,U100C A107C,2.87
2,U96A C111U,0.07
3,U96C G97A,0.02
4,C98A U130C,0.13
5,U100C U102A,1.95
6,A92U U132A,0.69
7,A92U U132C,0.83
8,U96A G144A,0.07
9,A94U A142G,0.34
10,A94U A142C,0.09
11,U100C C113U,1.7
12,U96A U104G,0.08
13,A94G A140G,0.26
14,A94C U96C,0.18
15,A92U C120U,0.78
16,A92U U108A,0.6
17,G93U A121C,0.03
18,U96G U112C,0.05
19,A92G U132C,0.05
20,U100C C118A,2
21,G97C G106U,0.2
22,A92U G126A,0.41
23,U100A U112C,1.09
24,U100A U112A,0.91

row,Variant,self-cleavage
1,A94G A124U,0.36
2,C95U U134C,0.11
3,U96C A129C,0.15
4,U100A A107G,0.87
5,C95U A124U,0.2
6,C98U U130C,0.5
7,G93U G127C,0.19
8,C95U A117U,0.21
9,G93U U112C,0.03
10,G97A U115C,0.3
11,A94G U102C,0.18
12,U96A A138G,0.07
13,G97A U130C,0.19
14,C99U U108C,0.71
15,U100A U108A,0.97
16,U100A U108C,1.96
17,U100A A117U,1.01
18,U100A A117G,0.61
19,A94U U109A,0.27
20,A94G A107G,0.51
21,A92U U115A,0.62
22,A92U U115C,0.72
23,G97A U104A,0.06
24,G97A A121C,0.12

row,Variant,self-cleavage
1,U96A G125U,0.09
2,U100C U130A,1.85
3,U100C U130G,1.02
4,G93C C120U,0.03
5,U96C U119C,0.22
6,U96C U119A,0.18
7,A92U A94G,0.05
8,C98U U102C,0.55
9,C99U C133U,0.34
10,G93U U102C,0.04
11,U96A C103A,0.06
12,U96C C133U,0.08
13,U100C C131U,2.27
14,U100C C131G,2.35
15,C95A,0.07
16,C95G,0.06
17,C95U,0.14
18,A92U C118G,0.37
19,A94G A129U,0.22
20,U100A U134C,1.12
21,A94G C110G,0.22
22,A94G C110U,0.32
23,A92U,0.66
24,U96C A138G,0.2

row,Variant,self-cleavage
1,U96C U108G,0
2,U96C U108C,0.17
3,A94C G126C,0.23
4,U96C A121G,0.12
5,U96C A121C,0.09
6,U96A U102C,0.12
7,U96A U102A,0.1
8,U100C C110A,1.77
9,A94U G105A,0.21
10,G97A A107G,0.13
11,G93U U115C,0.04
12,A94C A107G,0.13
13,U96C C123U,0.04
14,U100A U130C,2.57
15,C99A A124G,0.21
16,G97U A129U,0.08
17,A94G U119A,0.39
18,A94G U119C,0.38
19,G97A G126A,0.09
20,G97A G126U,0.07
21,U100A A138G,1.18
22,U100A A138U,0.89
23,U96G G126A,0
24,A92U A107U,0.89

row,Variant,self-cleavage
1,A92U A107C,0.9
2,U100C U112A,1.74
3,A94U U96A,0.08
4,G93C,0.05
5,G93U,0.06
6,G93A,0.04
7,C98U A140G,0.57
8,A92U U119C,0.87
9,G97A A136U,0.11
10,C98A,0.17
11,C98U,0.4
12,C98G,0.13
13,C99G U112A,0.69
14,U100C A121G,1.21
15,U100C A121U,2.11
16,G93A U132C,0.03
17,G97C C111A,0.18
18,G97A G114A,0.15
19,U96A G122A,0.06
20,U96A U109C,0.1
21,U96A A129U,0.07
22,U96A A129G,0.07
23,G93A A141G,0.04
24,U96A U143G,0.1

row,Variant,self-cleavage
1,U96A U143C,0.06
2,U96A U143A,0.38
3,G97U U132A,0.03
4,G93A A129G,0.08
5,U100C G144C,1.95
6,U100C G144A,1.07
7,C99A C113U,0.27
8,G93A A140G,0.06
9,C99U U115C,1.15
10,C99U U115A,0.33
11,A94G G97A,0.02
12,U96A U112C,0.06
13,A92U A141G,0.96
14,U96C A124G,0.06
15,A94G A121C,0.57
16,A94G A121G,0.22
17,U96G C120U,0.04
18,G97A A138G,0.14
19,A94G A141U,0.19
20,C99A G114A,0.44
21,C95A U112C,0.05
22,G93A A142G,0.04
23,U100C C123U,2.06
24,A92U A124U,1.2

row,Variant,self-cleavage
1,G93A U112C,0.06
2,A94G A138G,0.19
3,U96A C145A,0.06
4,U96G U102C,0
5,U96A A121G,0.1
6,U96A A121C,0.06
7,C98U A107G,0.46
8,A92U U134C,0.71
9,A92U U134A,0.52
10,U96C U112A,0.12
11,U96C U112C,0.12
12,U100C U132A,2.37
13,A94U C133U,0.29
14,A92U U104A,0.44
15,A94C C95U,0.02
16,C95A G114A,0.07
17,U96A C110G,0.09
18,A94U U102C,0.16
19,G93A G122C,0.01
20,U96C G144A,0.25
21,A94G U143A,0.55
22,C99U C101U,1
